Experiment [1] concerns the target T1, recombinant human CD70 (Flag-TNC-CD70) (human, UniProt P32970 39-193).
T1 construct: extracellular domain; Captured by anti-Flag mAb in ELISA; as 'recombinant human CD70' immobilised on Biacore CM5 chips; TNC is for trimerisation; also called recombinant CD70; human recombinant CD70; not shown: Flag tag and TNC trimerisation domain
T1 sequence (looked up): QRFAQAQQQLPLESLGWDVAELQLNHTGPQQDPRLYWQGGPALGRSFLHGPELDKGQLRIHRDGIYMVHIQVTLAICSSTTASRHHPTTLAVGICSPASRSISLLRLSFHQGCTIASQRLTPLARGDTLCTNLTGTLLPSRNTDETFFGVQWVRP
The experiment can be described thus: Biacore; recombinant human CD70 on CM5 chip; Fab injected. The procedure: Off-rates of the purified llama-derived anti-CD70 blocking Fabs were determined using the Biacore. Recombinant human CD70 was immobilized on a CM5 Biacore chip. The immobilization was performed in accordance with a method provided by Biacore and by using the NHS/EDC kit (Biacore AB): after activation of the chip, a solution of 50 μg/ml of recombinant CD70 in 10 mM acetate buffer with pH of 5 was prepared and 1 μl of this solution (50ng) was injected resulting in a surface density of approximately 1000 RU.
Fabs for the CD70 mAbs ARGX-110, MDX2H5 and SGN70 were prepared by […] digestion (SGN70 and MDX69A7 are described elsewhere herein, MDX2H5, also referred to as MDX1411, is described in WO2008/074004 FIGS. 1A and 1B). Fabs, at a concentration of approximately 100-400 μg/ml, were diluted 6-fold in hepes-buffered saline (0.1M Hepes, 1.5M NaCl, 30 mM EDTA, 0.5% v/v surfactant P20). They were injected (30 μl) and passed through the flow cells at a flow rate of 30 μl/min. After binding of the Fab to CD70, the off-rate was monitored for a period of 10 minutes. After the dissociation, the flow cell surfaces were regenerated by injecting 5 μl of 10 mM NaOH. Sometimes multiple injections of NaOH were needed to regenerate the surfaces depending on the affinity of the Fabs. Off-rate analysis was done by applying the BIAevaluation software. First, the sensogram of the blank runs were subtracted from those obtained with the coated flow cell. […] Moreover, the off-rate of CD27 for CD70 was determined as well.
On the technique in general: In SPR one partner is held on a chip, and binding of the other changes the refractive index at the surface.

The target in experiment [2] is T1, recombinant human CD70 (Flag-TNC-CD70). The experiment can be described thus: inhibition ELISA; Flag-TNC-CD70 captured by anti-Flag mAb; competitor CD27-Fc. The procedure: From selected phage transfected into TG1, individual colonies were picked randomly for growth in 96 well plates. After IPTG induction according to standard protocols periplasmic fractions (penis) containing Fabs were prepared. […] In this assay, Flag-TNC-CD70 is captured by an anti-Flag mAb and binding of CD27-Fc is detected via a biotinylated anti-CD27 mAb and strep-HRP in the absence or presence of CD70 Fabs (FIGS. 2 and 3) or CD70 mAbs (FIG. 4). In FIG. 2B it can be seen that 27B3, which has an identical VH as 9D1, but contains a somewhat different light chain, seems to block binding of CD27 to CD70 more efficiently, which was in line with the better off rate of this Fab as measured on Biacore (data not shown). Table 3 indicates the blocking potency (expressed as IC50) for the various llama-human chimeric mAbs tested in the CD70 inhibition ELISA. […] FIG. 3 is a composite of an experiment testing llama CD70 Fabs for blocking activity (in the inhibition ELISA, see white bars) and for CD70 binding (binding ELISA, black bars). For the binding ELISA, Flag-TNC-CD70 is captured by an anti-Flag mAb and binding of the Fabs is detected using an anti-myc-HRP mAb, which recognizes the MYC tag fused to the C-terminus of the Fd fragment. For comparison purposes, known monoclonal antibodies to CD70 (SGN70 described in US 2010/0129362 A1, clone 1F6; and MDX69A7 described in WO2008/074004 FIGS. 5A and 5B) were tested in parallel. […] Of interest is clone 59D10, which as Fab has no blocking activity, but when converted into a chimeric IgG was antagonistic (see Table 3). Amino acid sequences of the VH and VL domains of binding and blocking llama-derived Fab clones are shown elsewhere herein (Tables 6-9).

Experiment [3] has the same target. As to the kind of experiment: Biacore; CD70 coated CM5 chip; Fab in periplasmic fraction. The procedure:
Phage eluted from rounds 3, 4 and 5 of selection were transfected into TG1 and plated clonally; individual clones were picked randomly for further analysis. Periplasmic fractions containing Fabs were prepared from IPTG induced small scale cultures the off rate of each Fab was determined using a CD70 coated CM5 chip in a Biacore binding assay. Clones with Fab having off rates similar to that of 27B3 were sequenced.

The source of these data is patent publication US20150266963A1 (ARGEN X B V, published 2015).

Residue numbers refer to the chain shown, from its start.

In general, koff refers to a measure of how fast the partners let go of each other. As usually defined, the IC50 is the concentration at which inhibition is half-maximal.

B1: 8B12 Fab (Fab, V domains shown)
VH: EVQLVESGGGLVQPGGSLRLSCAASGFTFSVYYMNWVRQAPGKGLEWVSDINNEGDTTYYADSVKGRFTISRDNAKNTLTLQMDSLKPEDTALYYCVRDAGYSNHVPIFDSWGQGTQVIVAS
VL: QTVVTQEPSLSVSPGGTVTLTCGLSSGSVTSSNYPGWYQQTPGQAPRVLIYNTNNRHSGVPSRYSGSISGNKAALTITGAEPEDEADYYCNLHLGSYTPMFGGGTKLTVLG
notes: Llama-derived Fab
In the case of B1, the koff in experiment [1] came out at 0.00036 s⁻¹.

B2: 45B12 Fab (Fab, V domains shown)
VH: B1 VH with V31A, V48I, D56Y, T57E, L93R, P107Q
VL: QAVLTQPSSVSVSLGQTAKITCQGGNLGLYGANWYQQNPGRAPILLIYGDNYRPLGIPERFTISKSGGTATLTIDGAQAEDESDYYCQSADYSGNSVFGGGTKLTVLG
notes: Llama-derived Fab
In the case of B2, in experiment [1], the koff was determined as 0.00021 s⁻¹.

B3: 45F8 Fab (Fab, V domains shown)
VH: B1 VH with V31A, V48I, D56Y, T57E, L93R, P107Q
VL: B2 VL with K19N, I47F, R53M, D81N, A90S, S93P
notes: Llama-derived Fab
Turning to B3, in experiment [1], the koff came out at 0.0002 s⁻¹.

B4: 45D9 Fab (Fab, V domains shown)
VH: B1 VH with V31A, V48I, D56Y, T57E, L93R, P107Q
VL: B2 VL with G28W, Y52Q
notes: Llama-derived Fab
Consider B4, for which the koff in experiment [1] worked out at 0.00021 s⁻¹.

B5: 24B6 chimeric llama-human mAb (antibody, human IgG1, V domains shown)
VH: EVQLQESGGGVVQPGGSLRLSCAASGFTFDDYAMSWVRQAPGKGLEWVSSIYMYDSSTYYADSVKGRFTISTDNAKNTVYLQMNSLKSEDTAVYYCAKDINRSYGSSWSHFGPIFSSWGQGTQVTVSS
VL: QPVLTQPSAVSVSLGQTARITCQGGYYTHWYQQKPGQAPVLVIYINNNRPSGIPERFSGSISGNTATLTISGAQVEDEADYYCQSGSSSTIPVFGGGTKLTVLG
Turning to B5, the IC50 in experiment [2] came to 0.42 µg/mL.

B6: 41D12 Fab (Fab, V domains shown)
VH: EVQLVESGGGLVQPGGSLRLSCAASGFTFSVYYMNWVRQAPGKGLEWVSDINNEGGTTYYADSVKGRFTISRDNSKNSLYLQMNSLRAEDTAVYYCARDAGYSNHVPIFDSWGQGTLVTVSS
VL: QAVVTQEPSLTVSPGGTVTLTCGLKSGSVTSDNFPTWYQQTPGQAPRLLIYNTNTRHSGVPDRFSGSILGNKAALTITGAQADDEAEYFCALFISNPSVEFGGGTQLTVLG
notes: Germlined 27B3 Fab, periplasmic fraction
B6: the koff in experiment [3] is 0.00023 s⁻¹.

B7: 33D8 Fab (Fab, V domains shown)
VH: B1 VH with D56G, D84N
VL: QSALTQPSTVSVSLGQTARITCRGDSLERYGTNWYQQKPGQAPVLVIYDDDSRPSGIPERFSGSSSGATAALTISGAQAEDEGDYYCQSADSSGNAVFGGGTHLTVLG
notes: Llama-derived Fab
For B7, the koff in experiment [1] stood at 0.00045 s⁻¹.

B8: 39D5 Fab (Fab, V domains shown)
VH: B6 VH with V31G, S75A, S78T, A97V, L117T, S121A
VL: B6 VL with A2T, L24V, K25T, A82P, D83E, A86S, E87D, F89Y
notes: as for B6
With B8, the koff in experiment [3] was 0.00012 s⁻¹.

B9: 53G1 Fab (Fab, V domains shown)
VH: B1 VH with D56G, T80Y, D84N, L93V, Q117T, A121S
VL: B6 VL with A2T, L10F, T11S, K25T, D32T, T55S, D62S, A86S, E87D
notes: as for B6
B9: in experiment [3], the koff was 0.0002 s⁻¹.

B10: 24E3 Fab (Fab, V domains shown)
VH: B1 VH with D56G, D84N
VL: QAVVTQEPSLSVSPGGTVTLTCGLTSGSVTSDNFPVWYQQTPGQAPRLLIYTINSRHSGVPSRFSGSITGNKAILTITGAQPEDEADYYCALYLENFANEFGGGTRLTVLG
notes: Llama-derived Fab
Take B10: the koff in experiment [1] amounted to 8e-05 s⁻¹.

B11: 35G1 Fab (Fab, V domains shown)
VH: B6 VH with L18V, S75A, S78T, R87K, A88P, S121A
VL: B6 VL with A2T, L10F, T11S, T55S, A86S, E87D
notes: as for B6
Turning to B11, in experiment [3], the koff was 0.00023 s⁻¹.

B12: 39C3 Fab (Fab, V domains shown)
VH: B6 VH with E6A, S78T, L117T
VL: B6 VL with L10F, T11S, D62S, A86S, E87D, F89Y
notes: as for B6
Consider B12, for which, in experiment [3], the koff stood at 0.00025 s⁻¹.

B13: 36D6 Fab (Fab, V domains shown)
VH: B1 VH with D56G, T80Y, D84N, Q117T, I119T, A121S
VL: B6 VL with A2T, D32T, T55S, A86S, E87D
notes: as for B6
In the case of B13, the koff in experiment [3] was 0.00014 s⁻¹.

B14: 35G2 Fab (Fab, V domains shown)
VH: B6 VH with S75A, S78T, R87K, A88P
VL: B6 VL with A2T, L10F, T11S, D32T, T55S, E87D
notes: as for B6
With B14, in experiment [3], the koff stood at 0.00017 s⁻¹.

B15: 40F1 Fab (Fab, V domains shown)
VH: B6 VH with T57A, L117Q
VL: B6 VL with L10F, T11S
notes: as for B6
Consider B15, for which the koff in experiment [3] worked out at 0.00016 s⁻¹.

B16: 41H8 Fab (Fab, V domains shown)
VH: B6 VH with S78T, L117Q, S121A
VL: B6 VL with L10F, T11S, K25T, D32T, T55S, A82P, D83E, A86S, E87D
notes: as for B6
With B16, in experiment [3], the koff was determined as 0.00022 s⁻¹.

B17: 35G3 Fab (Fab, V domains shown)
VH: B6 VH with Y80T, R87K, A88P
VL: B6 VL with L10F, T11S, T55S, T78R, F89Y
notes: as for B6
With B17, the koff in experiment [3] turned out to be 0.00017 s⁻¹.

B18: 53F1 Fab (Fab, V domains shown)
VH: B1 VH with D56G, D84N, L93V, I119T
VL: B6 VL with L10F, T11S, A86S, E87D
notes: as for B6
On to B18, for which, in experiment [3], the koff was determined as 0.00023 s⁻¹.

B19: 42D12 Fab (Fab, V domains shown)
VH: B6 VH with S78T, A97V, L117Q
VL: B6 VL with L10F, T11S, K25T, D32T, D62S
notes: as for B6
With B19, in experiment [3], the koff came to 0.00016 s⁻¹.

B20: 36A9 Fab (Fab, V domains shown)
VH: B1 VH with D56G, A75S, D84N, L93V, A121S
VL: B6 VL with A2T, L10F, T11S, A86S, E87D
notes: as for B6
Regarding B20, in experiment [3], the koff came to 0.00013 s⁻¹.

B21: 36G2 Fab (Fab, V domains shown)
VH: B6 VH with S75A, Y80T, A97V, L117Q
VL: B6 VL with A82P, D83E, A86S, E87D, F89Y
notes: as for B6
Take B21: in experiment [3], the koff worked out at 0.00011 s⁻¹.

B22: 59D10 Fab (Fab, V domains shown)
VH: EVQLVESGGGLVQPGGSLRLSCAASELSFSISEMTWVRQAPGKGLEWVSGISGVTGGSSTSYADSVKGRFTISRDNDKNTLYLQMNSLIPEDTAVYYCATTSGTYYFIPEYEYWGQGTQVTVSS
VL: QSVLTQPPSVSGSPGKTVTISCAGTSSDVGYGYYVSWYQQFPGMAPKLLIYDVNKRASGIADRFSGSKAGNTASLTISGLQSEDEADYYCASYRSSANAVFGGGTHLTVLG
notes: Llama-derived Fab
Turning to B22, the koff in experiment [1] came out at 0.00139 s⁻¹.
